Consider three substances from IntAct's records for PubMed 7651520.

The assay has as its target ste20_yeast STE20 (UniProt Q03497).

Sequence of ste20_yeast STE20 (Q03497 whole entry): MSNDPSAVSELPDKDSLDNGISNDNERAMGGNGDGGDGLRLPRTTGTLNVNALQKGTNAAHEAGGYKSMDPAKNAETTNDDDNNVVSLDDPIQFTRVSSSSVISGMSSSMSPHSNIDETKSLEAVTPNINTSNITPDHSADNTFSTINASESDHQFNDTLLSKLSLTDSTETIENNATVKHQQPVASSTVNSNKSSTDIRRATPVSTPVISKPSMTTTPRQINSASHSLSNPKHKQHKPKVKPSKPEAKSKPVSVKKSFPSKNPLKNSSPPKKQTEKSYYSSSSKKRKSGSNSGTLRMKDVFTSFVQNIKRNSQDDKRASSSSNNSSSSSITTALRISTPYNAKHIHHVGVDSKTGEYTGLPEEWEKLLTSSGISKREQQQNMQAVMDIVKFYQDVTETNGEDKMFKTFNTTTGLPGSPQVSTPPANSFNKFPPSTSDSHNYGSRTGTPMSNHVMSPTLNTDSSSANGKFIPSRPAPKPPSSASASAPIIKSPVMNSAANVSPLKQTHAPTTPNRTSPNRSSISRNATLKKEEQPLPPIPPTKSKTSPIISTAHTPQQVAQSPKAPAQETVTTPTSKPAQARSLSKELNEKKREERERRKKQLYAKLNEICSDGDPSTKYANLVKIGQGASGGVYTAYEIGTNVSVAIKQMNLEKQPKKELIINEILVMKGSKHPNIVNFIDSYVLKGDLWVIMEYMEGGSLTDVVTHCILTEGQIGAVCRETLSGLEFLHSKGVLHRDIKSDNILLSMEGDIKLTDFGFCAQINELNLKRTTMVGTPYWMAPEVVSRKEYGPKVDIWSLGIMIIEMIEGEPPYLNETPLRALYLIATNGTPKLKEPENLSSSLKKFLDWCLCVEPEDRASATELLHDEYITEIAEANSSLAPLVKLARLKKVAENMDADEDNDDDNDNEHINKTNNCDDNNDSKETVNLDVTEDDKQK
Sequence of Cell division control protein 42 (Saccharomyces cerevisiae), P19073 G12V;C188S (P19073 whole entry G12V/C188S): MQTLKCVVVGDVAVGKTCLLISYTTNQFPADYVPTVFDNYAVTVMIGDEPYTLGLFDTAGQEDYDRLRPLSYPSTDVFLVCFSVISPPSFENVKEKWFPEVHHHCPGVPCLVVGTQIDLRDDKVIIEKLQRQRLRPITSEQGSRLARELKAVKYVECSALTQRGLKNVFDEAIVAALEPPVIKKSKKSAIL
Sequence of Cell division control protein 42 (Saccharomyces cerevisiae), P19073 C188S (P19073 whole entry C188S): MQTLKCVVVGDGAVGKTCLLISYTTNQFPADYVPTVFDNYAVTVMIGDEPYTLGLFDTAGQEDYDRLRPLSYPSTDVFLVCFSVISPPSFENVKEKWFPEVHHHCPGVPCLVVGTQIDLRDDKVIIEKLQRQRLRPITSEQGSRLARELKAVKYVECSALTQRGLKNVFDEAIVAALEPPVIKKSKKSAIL
Sequence of Cell division control protein 42 (Saccharomyces cerevisiae), P19073 Q61L;C188S (P19073 whole entry Q61L/C188S): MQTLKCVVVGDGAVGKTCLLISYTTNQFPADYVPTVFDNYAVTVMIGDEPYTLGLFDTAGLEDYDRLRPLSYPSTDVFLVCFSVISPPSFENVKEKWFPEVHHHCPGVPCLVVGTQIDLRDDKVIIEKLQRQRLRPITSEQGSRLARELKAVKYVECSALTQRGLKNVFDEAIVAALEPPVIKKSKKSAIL

Turning to “Cell division control protein 42 (Saccharomyces cerevisiae), P19073 G12V;C188S”, the “effect of a mutation on the interaction” value was “increasing interaction”. As to “Cell division control protein 42 (Saccharomyces cerevisiae), P19073 C188S”, the “effect of a mutation on the interaction” value is recorded as “increasing interaction”. As for “Cell division control protein 42 (Saccharomyces cerevisiae), P19073 Q61L;C188S”, the “effect of a mutation on the interaction” value is given as “increasing interaction”.
